For experiment [1], the target named is T1, MUC16 "short" construct expressed on PC3 cells (PC3/MUC16 short) (human).
T1 construct: Transfected into PC3/ATCC cells; part of SEA12, SEA13-SEA16, C-terminal non-SEA region, transmembrane region and cytoplasmic domain; also called "nub" portion of MUC16 without the repeat regions
T1 chain: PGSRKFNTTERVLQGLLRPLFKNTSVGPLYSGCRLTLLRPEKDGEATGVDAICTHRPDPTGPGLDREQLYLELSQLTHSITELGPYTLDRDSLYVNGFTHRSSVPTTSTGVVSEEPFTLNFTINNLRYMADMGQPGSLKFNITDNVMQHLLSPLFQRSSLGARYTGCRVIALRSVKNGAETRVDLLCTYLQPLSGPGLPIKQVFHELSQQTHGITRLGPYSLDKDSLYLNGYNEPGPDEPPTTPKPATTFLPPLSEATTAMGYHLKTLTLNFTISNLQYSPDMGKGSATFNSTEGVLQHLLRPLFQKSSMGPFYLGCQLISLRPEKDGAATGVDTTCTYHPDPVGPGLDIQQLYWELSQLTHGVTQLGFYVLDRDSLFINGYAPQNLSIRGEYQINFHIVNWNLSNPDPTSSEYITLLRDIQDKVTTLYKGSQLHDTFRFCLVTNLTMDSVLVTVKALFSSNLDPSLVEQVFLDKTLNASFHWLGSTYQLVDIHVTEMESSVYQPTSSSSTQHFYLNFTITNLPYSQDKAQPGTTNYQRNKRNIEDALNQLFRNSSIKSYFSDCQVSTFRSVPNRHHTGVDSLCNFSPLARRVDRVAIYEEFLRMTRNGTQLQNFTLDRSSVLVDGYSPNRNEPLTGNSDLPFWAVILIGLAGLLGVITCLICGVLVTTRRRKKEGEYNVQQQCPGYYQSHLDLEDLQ
The experiment can be described thus: IHC on FFPE cell pellets, PC3/MUC16 Short cells.

The target of experiment [2] is T2, soluble monomeric human MUC16, truncated format encompassing the last five SEA domains of Mucin-16 (human).
T2 construct: also called hMUC16.mmh; MUC16 "nub"
T2 chain: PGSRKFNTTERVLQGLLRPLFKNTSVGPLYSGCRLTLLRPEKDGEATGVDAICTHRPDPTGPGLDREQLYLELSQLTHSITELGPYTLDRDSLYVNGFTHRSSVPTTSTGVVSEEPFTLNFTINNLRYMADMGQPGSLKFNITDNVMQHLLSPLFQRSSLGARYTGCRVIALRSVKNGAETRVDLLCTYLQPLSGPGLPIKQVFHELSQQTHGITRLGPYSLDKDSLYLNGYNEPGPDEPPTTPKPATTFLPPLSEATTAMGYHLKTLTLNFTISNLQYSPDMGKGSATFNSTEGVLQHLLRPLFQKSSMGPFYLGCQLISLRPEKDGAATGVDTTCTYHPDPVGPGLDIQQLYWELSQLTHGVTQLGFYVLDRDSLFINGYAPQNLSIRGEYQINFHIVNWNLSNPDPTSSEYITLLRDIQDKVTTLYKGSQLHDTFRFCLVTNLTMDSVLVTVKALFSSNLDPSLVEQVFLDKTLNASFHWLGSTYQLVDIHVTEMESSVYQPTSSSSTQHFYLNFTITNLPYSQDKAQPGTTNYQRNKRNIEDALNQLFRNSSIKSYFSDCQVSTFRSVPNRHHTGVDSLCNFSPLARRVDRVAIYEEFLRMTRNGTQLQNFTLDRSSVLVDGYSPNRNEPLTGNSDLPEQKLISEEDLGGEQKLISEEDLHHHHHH
The experiment can be described thus: SPR Biacore, antibody captured, soluble monomeric hMUC16.mmh injected, 25C. (Surface plasmon resonance follows binding to a sensor surface in real time, without labels.)

In experiment [3] the target is T3, human MUC16 (mucin 16), endogenously expressed on cells (human).
T3 construct: Endogenous MUC16 on OVCAR-3 / OVCAR3-Luc / PEO-1 / HPAC cells; also called hMUC16
The experiment can be described thus: MSD electrochemiluminescence cell binding; RLU ratio OVCAR-3/SK-OV-3; Ab 1.9 nM.

Experiment [4] concerns the target T3, human MUC16 (mucin 16), endogenously …. The experiment can be described thus: MSD electrochemiluminescence cell binding; RLU ratio OVCAR-3/SK-OV-3; Ab 16.7 nM.

B1: H2M7138N (antibody, mouse IgG2, V domains shown)
VH: QVQLVQSGAEVKKPGASVKVSCKASGYTFTSSDINWVRQATGQGLEWVGWMNPNYGYTGSARKFQDRVTMTRNTSLSTAYLELHSLRSEDTAVYYCARVTYCSSVTSCFRPFTYWGQGTLVTVSA
VL: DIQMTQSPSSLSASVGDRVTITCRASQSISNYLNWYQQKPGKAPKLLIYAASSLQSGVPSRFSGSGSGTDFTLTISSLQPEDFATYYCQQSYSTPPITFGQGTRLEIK
notes: Mouse IgG2 constant region (H2M); also called H2aM7138N
As for B1, in experiment [1], the binding result is on record as “binds”. In experiment [2], the dissociation constant Kd amounted to 1.25 nM, the off-rate (koff) is 9.25e-05 s⁻¹, the kon stood at 74100 M⁻¹ s⁻¹ and the “t ½” value is 2.08 h. In addition, the “Ratio: anti-MUC16 Binding OVCAR-3/SK-OV-3” value in experiment [3] amounted to 82 ratio. In addition, in experiment [4], the “Ratio: anti-MUC16 Binding OVCAR-3/SK-OV-3” value was 50 ratio.

By Kd is commonly meant a measure of binding affinity in units of concentration. The low end stands for a tighter complex, the high end for a looser complex. By koff is commonly meant a measure of how fast the partners let go of each other. The kon is a measure of how fast the partners come together.

The values above are taken from patent publication US20180112001A1 (Regeneron, published 2018).
